Source: US20140179896A1 (published 2014)
One block for each binder: values may come before it.

Assays:
[1] = target: T1, human vascular endothelial growth factor receptor-2 Fc chimera (KDR-Fc) (human, UniProt P35968 20-764); assay: binding to 1 nM KDR-Fc, % of input; radioactive equilibrium binding (assay not given)
T1 construct: range 1-764; also called human VEGFR-2; hKDR; not shown: human IgG1 Fc
Method: (§1) To prepare ³⁵S-labeled binding proteins for analysis, mRNA was prepared as described above for RNA-protein fusion production but the linker ligation step was omitted. The mRNA was expressed using rabbit reticulocyte lysate translation kit (Ambion) in the presence of ³⁵S-labeled Met at 30° C. for 1 hour. Expressed protein was purified on M2-agarose Flag beads (Sigma) as described above. This procedure produced the encoded protein without the nucleic acid tail. In a direct binding assay, VEGF-R2-Fc fusions in concentrations ranging from 0 to 200 nM were added to a constant concentration of the purified protein (0.2 or 0.5 nM) and incubated at 30° C. for 1 hour in buffer B. The receptor-binder complexes were captured using Protein A magnetic beads for another 10 minutes at room temperature using a Kingfisher™ The beads were washed with six reaction volumes of buffer B. The protein was eluted from the beads with 100 μL of 0.1 M KOH. […] of the reaction mixture and elution were dried onto a LumaPlate-96 (Packard) and the amount of ³⁵S on the plate was measured using a TopCount NXT instrument (Packard). The amount of fibronectin-based scaffold protein bound to the target was estimated as a percent of radioactivity eluted from Protein A magnetic beads compare to radioactivity in the reaction mixture. Nonspecific binding of fibronectin-based scaffold proteins to the beads was determined by measuring binding in the absence of KDR-Fc and represented less than 1-2% of the input. Specific binding was obtained through subtraction of nonspecific binding from total binding. Data was analyzed using the GraphPad Prizm software (GraphPad Software, Inc, San Diego, Calif.), fitted using a one site, non-linear binding equation.
T1 sequence (P35968 20-764 limits assumed, change not shown, form in doubt): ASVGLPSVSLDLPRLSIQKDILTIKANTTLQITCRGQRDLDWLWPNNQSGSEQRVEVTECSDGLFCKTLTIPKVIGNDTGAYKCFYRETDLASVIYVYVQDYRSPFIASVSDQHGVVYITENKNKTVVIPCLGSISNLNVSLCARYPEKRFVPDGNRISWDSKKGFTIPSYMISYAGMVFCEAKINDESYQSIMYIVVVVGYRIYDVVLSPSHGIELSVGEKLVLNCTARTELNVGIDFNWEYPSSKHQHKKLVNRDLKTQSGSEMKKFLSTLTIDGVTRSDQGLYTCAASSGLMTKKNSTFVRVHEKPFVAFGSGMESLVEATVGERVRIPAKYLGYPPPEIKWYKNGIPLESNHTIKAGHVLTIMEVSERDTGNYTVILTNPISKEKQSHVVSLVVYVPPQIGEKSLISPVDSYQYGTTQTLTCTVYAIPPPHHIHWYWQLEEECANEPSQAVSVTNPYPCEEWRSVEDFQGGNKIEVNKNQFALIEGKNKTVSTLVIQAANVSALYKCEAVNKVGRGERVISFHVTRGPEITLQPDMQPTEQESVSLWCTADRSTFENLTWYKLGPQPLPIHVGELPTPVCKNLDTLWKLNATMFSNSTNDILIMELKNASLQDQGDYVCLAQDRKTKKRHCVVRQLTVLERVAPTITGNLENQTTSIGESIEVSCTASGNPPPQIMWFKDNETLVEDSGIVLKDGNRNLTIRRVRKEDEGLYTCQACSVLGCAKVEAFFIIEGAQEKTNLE

[2] = target: T2, mouse vascular endothelial growth factor receptor-2 Fc chimera (Flk-1-Fc) (mouse, UniProt P35918 20-762); assay: binding to 1 nM Flk-1-Fc, % of input; radioactive equilibrium binding (assay not given)
T2 construct: Purchased from R&D Systems; also called mouse VEGF-R2; not shown: Fc part of the purchased chimera
Method: as §1
T2 sequence (P35918 20-762, change not shown): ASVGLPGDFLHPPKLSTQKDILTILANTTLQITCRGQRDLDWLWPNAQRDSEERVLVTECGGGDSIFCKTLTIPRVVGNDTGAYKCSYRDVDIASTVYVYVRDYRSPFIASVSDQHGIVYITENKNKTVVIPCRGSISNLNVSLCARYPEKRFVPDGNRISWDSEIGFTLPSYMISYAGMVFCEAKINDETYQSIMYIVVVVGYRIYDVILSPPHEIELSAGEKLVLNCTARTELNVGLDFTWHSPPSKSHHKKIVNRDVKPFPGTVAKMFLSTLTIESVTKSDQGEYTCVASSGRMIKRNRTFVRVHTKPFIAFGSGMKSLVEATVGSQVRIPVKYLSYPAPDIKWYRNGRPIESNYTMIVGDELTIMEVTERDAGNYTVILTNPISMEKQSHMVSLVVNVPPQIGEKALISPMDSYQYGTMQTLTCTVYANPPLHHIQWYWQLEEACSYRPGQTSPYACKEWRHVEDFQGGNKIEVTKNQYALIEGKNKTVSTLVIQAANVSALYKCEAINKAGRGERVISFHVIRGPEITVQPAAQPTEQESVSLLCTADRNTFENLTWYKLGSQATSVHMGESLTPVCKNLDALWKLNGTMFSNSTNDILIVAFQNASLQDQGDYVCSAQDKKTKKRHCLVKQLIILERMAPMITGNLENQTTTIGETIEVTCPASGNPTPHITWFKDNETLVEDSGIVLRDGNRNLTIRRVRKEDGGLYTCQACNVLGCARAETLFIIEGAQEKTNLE

[3] = target: T3, human vascular endothelial growth factor receptor-2 Fc chimera (KDR-Fc) (human, UniProt P35968 20-764); assay: radioactive equilibrium binding, KDR-Fc
T3 construct: range 1-764; also called human VEGFR-2; VEGF-R2-Fc; not shown: human IgG1 Fc
Method: as §1
T3 sequence (P35968 20-764 limits assumed, change not shown, form in doubt): as the sequence (P35968 20-764 limits assumed, change not shown, form in doubt) above

[4] = target: T3, human vascular endothelial growth …; assay: radioactive equilibrium binding, 1 nM KDR-Fc
How it was run: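 ³⁵S-Met-labeled fibronectin-scaffold binders, made by reticulocyte lysate translation (30° C, 1 h) and Flag-purified, were held at 0.2 or 0.5 nM and incubated with 0–200 nM VEGF-R2-Fc for 1 h at 30° C in buffer B. Complexes were captured on Protein A magnetic beads, washed, KOH-eluted and counted.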

[5] = target: T4, human vascular endothelial growth factor receptor-2 Fc chimera (KDR-Fc) (human, UniProt P35968 20-764); assay: radioactive equilibrium binding assay
T4 construct: range 1-764; purchased from R&D Systems; also called hKDR; human VEGF-R2-Fc; not shown: human IgG1 Fc
Method: as §1
T4 sequence (P35968 20-764 limits assumed, change not shown, form in doubt): as above

[6] = target: T5, mouse vascular endothelial growth factor receptor-2 Fc chimera (Flk-1-Fc) (mouse, UniProt P35918 20-762); assay: radioactive equilibrium binding assay
T5 construct: purchased from R&D Systems; also called mouse VEGF-R2-Fc; not shown: Fc part of the purchased chimera
Method: as §1
T5 sequence (P35918 20-762, change not shown): as the sequence (P35918 20-762, change not shown) above

Binding to 1 nM KDR, % [1]: 36%
Binding to 1 nM FLK, % [2]: 7%
B1: E23 (designed binder)
chain: EVVAATPTSLLISWRHHPHFPTRYYRITYGETGGNSPVQEFTVPLQPPTATISGLKPGVDYTITGYAVTVHWNGRELMTPISINYRT
notes: Del 1-8 10Fn3 clone; Flag tag not included

Binding to 1 nM KDR, % [1]: 43%
Binding to 1 nM FLK, % [2]: 11%
B9: E20 (designed binder)
chain: EVVAATPTSLLISWRHPHFPTRYYRITYGETGGNSPVQEFTVPLQPPTATISGLKPGVDYTITGYAVTVERNGQVLYTPISINYRT
notes: Del 1-8 10Fn3 clone; Flag tag of the radioactive-assay form not included

Binding to 1 nM KDR, % [1]: 37%
Binding to 1 nM FLK, % [2]: 9%
B13: E27 (designed binder)
chain: EVVAATPTSLLISWRHPHFPTRYYRITYGETGGNSPVQEFTVPLQPPTATISGLKPGVDYTITGYAVTVERNGHTLMTPISINYRT
notes: as for B9

Binding to 1 nM KDR, % [1]: 24%
Binding to 1 nM FLK, % [2]: 29%
B15: E24 (designed binder)
chain: EVVAATPTSLLISWRHPHFPTRYYRITYGETGGNSPVQEFTVPLQPPTATISGLKPGVDYTITGYAVTVERNDRVLFTPISINYRT
notes: as for B9

Binding to 1 nM KDR, % [1]: 32%
Binding to 1 nM FLK, % [2]: 10%
B19: E17 (designed binder)
chain: EVVAATPTSLLISWRHPHFPTRYYRITYGETGGNSPVQEFTVPLQPPTATISGLKPGVDYTITGYAVTVEENGRVLNTPISINYRT
notes: as for B9

Kd [5]: < 1.6 nM
Kd [6]: 2.1 nM
B22: E28 (designed binder)
chain: EVVAATPTSLLISWRHPHFPTRYYRITYGETGGNSPVQEFTVPLQPPTATISGLKPGVDYTITGYAVTLERNGRELMVPISINYRT
notes: Del 1-8 10Fn3 clone; Flag-tagged in vitro translated protein in the radioactive assay; tag left out

Binding to 1 nM KDR, % [1]: 35%
Binding to 1 nM FLK, % [2]: 0%
B24: E16 (designed binder)
chain: EVVAATPTSLLISWRHPHFPTRYYRITYGETGGNSPVQEFTVPLQPPTATISGLKPGVDYTITGYAVTVEENGRQLMTPISINYRT
notes: as for B9

The remaining lines, values behind:

B2: E14 (designed binder)
chain: EVVAATPTSLLISWRHPHFPTRYYRITYGETGGNSPVQEFTVPLQPPTATISGLKPGVDYTITGYAVTLERNGQVLFTPISINYRT
notes: as for B9
Binding to 1 nM KDR, % [1]: 33%
Binding to 1 nM FLK, % [2]: 11%

B3: K11 (designed binder)
chain: EVVAATPTSLLISWRHPHFPTRYYRITYGETGGNSPVQEFTVPLQPPTATISGLKPGVDYTITGYAVTQAPNDRVLYTPISINYRT
notes: Del 1-8
Kd [3]: 1.16 nM
Binding to 1 nM KDR, % [4]: 24%

B4: K12 (designed binder)
chain: EVVAATPTSLLISWRHPHFPTRYYRITYGETGGNSPVQEFTVPLQPPTATISGLKPGVDYTITGYAVTDVYNDHEIKTPISINYRT
notes: Del 1-8
Kd [3]: 0.62 nM
Binding to 1 nM KDR, % [4]: 29%

B5: K3 (designed binder)
chain: EVVAATPTSLLISWRHPHFPTRYYRITYGETGGNSPVQEFTVPLQPPTATISGLKPGVDYTITGYAVTAGWDDHELFIPISINYRT
notes: Del 1-8
Kd [3]: 1.15 nM
Binding to 1 nM KDR, % [4]: 45%

B6: K13 (designed binder)
chain: EVVAATPTSLLISWRHPHFPTRYYRITYGETGGNSPVQEFTVPLQPPTATISGLKPGVDYTITGYAVTLALKGHELLTPISINYRT
notes: Del 1-8; 246 used
Kd [3]: 0.58 nM
Binding to 1 nM KDR, % [4]: 17%

B7: K1 (designed binder)
chain: EVVAATPTSLLISWRHPHFPTRYYRITYGETGGNSPVQEFTVPLQPPTATISGLKPGVDYTITGYAVTMGLYGHELLTPISINYRT
notes: Del 1-8
Kd [3]: 0.55 nM
Binding to 1 nM KDR, % [4]: 48%

B8: K6 (designed binder)
chain: EVVAATPTSLLISWRHPHFPTRYYRITYGETGGNSPVQEFTVPLQPPTATISGLKPGVDYTITGYAVTDGKDGRVLLTPISINYRT
notes: Del 1-8
Kd [3]: 0.93 nM
Binding to 1 nM KDR, % [4]: 27%

B10: K10 (designed binder)
chain: EVVAATPTSLLISWRHPHFPTRYYRITYGETGGNSPVQEFTVPLQPPTATISGLKPGVDYTITGYAVTTGPNDRLLFVPISINYRT
notes: Del 1-8
Kd [3]: 0.57 nM
Binding to 1 nM KDR, % [4]: 33%

B11: K15 (designed binder)
chain: EVVAATPTSLLISWRHPHFPTRYYRITYGETGGNSPVQEFTVPLQPPTATISGLKPGVDYTITGYAVTEVHHDREIKTPISINYRT
notes: Del 1-8
Kd [3]: 0.35 nM
Binding to 1 nM KDR, % [4]: 25%

B12: K2 (designed binder)
chain: EVVAATPTSLLISWRHPHFPTRYYRITYGETGGNSPVQEFTVPLQPPTATISGLKPGVDYTITGYAVTDGENGQFLLVPISINYRT
notes: Del 1-8
Kd [3]: 1.19 nM
Binding to 1 nM KDR, % [4]: 48%

B14: K4 (designed binder)
chain: EVVAATPTSLLISWRHPHFPTRYYRITYGETGGNSPVQEFTVPLQPPTATISGLKPGVDYTITGYAVTAGYNDQILMTPISINYRT
notes: Del 1-8
Kd [3]: 1.95 nM
Binding to 1 nM KDR, % [4]: 38%

B16: E9 (designed binder)
chain: EVVAATPTSLLISWRHPHFPTRYYRITYGETGGNSPVQEFTVPLQPPTATISGLKPGVDYTITGYAVTEERNGRTLRTPISINYRT
notes: as for B22
Kd [5]: 2.4 nM
Kd [6]: < 1.4 nM

B17: K8 (designed binder)
chain: EVVAATPTSLLISWRHPHFPTRYYRITYGETGGNSPVQEFTVPLQPPTATISGLKPGVDYTITGYAVTVTHNGHPLMTPISINYRT
notes: Del 1-8; 279 used
Kd [3]: 3.3 nM
Binding to 1 nM KDR, % [4]: 18%

B18: K5 (designed binder)
chain: EVVAATPTSLLISWRHPHFPTRYYRITYGETGGNSPVQEFTVPLQPPTATISGLKPGVDYTITGYAVTMGPNDNELLTPISINYRT
notes: Del 1-8
Kd [3]: 1.54 nM
Binding to 1 nM KDR, % [4]: 47%

B20: K7 (designed binder)
chain: EVVAATPTSLLISWRHPHFPTRYYRITYGETGGNSPVQEFTVPLQPPTATISGLKPGVDYTITGYAVTSGHNDHMLMIPISINYRT
notes: Del 1-8
Kd [3]: 2.2 nM
Binding to 1 nM KDR, % [4]: 40%

B21: K9 (designed binder)
chain: EVVAATPTSLLISWRHPHFPTRYYRITYGETGGNSPVQEFTVPLQPPTATISGLKPGVDYTITGYAVTFGLYGKELLIPISINYRT
notes: Del 1-8
Kd [3]: 1.8 nM
Binding to 1 nM KDR, % [4]: 35%

B23: K14 (designed binder)
chain: EVVAATPTSLLISWRHPHFPTRYYRITYGETGGNSPVQEFTVPLQPPTATISGLKPGVDYTITGYAVTREENDHELLIPISINYRT
notes: Del 1-8
Kd [3]: 0.57 nM
Binding to 1 nM KDR, % [4]: 20%
